Test system: Escherichia coli TOP10
Test: shrunken log2 fold change of peptide-encoding DNA abundance (4.5 h post-induction vs induction); higher = less antimicrobial activity (less host growth inhibition)
Settings: time post-induction: 4.5 h; library: site-saturation at positions 5, 18, 19, 20
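Also: peptides expressed intracellularly from a pBAD plasmid library in pooled LB shake-flask culture, induced with 0.3% L-arabinose, DNA abundance read by NGS, three biological replicates, DESeq2 with apeglm shrinkage.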

Row | Sequence | shrunken log2 fold change
1 | RRIRARPPRLPRPRPRPHNEPRP | -0.258
2 | RRIRKRPPRLPRPRPRPACWPRP | 0.96
3 | RRIRKRPPRLPRPRPRPFLKPRP | 0.0443
4 | RRIRLRPPRLPRPRPRPYFWPRP | -0.0237
5 | RRIRSRPPRLPRPRPRPSWAPRP | -0.0813
6 | RRIRPRPPRLPRPRPRPQLGPRP | 0.159
7 | RRIRSRPPRLPRPRPRPRHVPRP | -0.0732
8 | RRIRPRPPRLPRPRPRPRNGPRP | -0.0237
9 | RRIRVRPPRLPRPRPRPEFFPRP | 0.183
10 | RRIRMRPPRLPRPRPRPQNLPRP | 0.12
11 | RRIRLRPPRLPRPRPRPCLAPRP | -0.219
12 | RRIRERPPRLPRPRPRPLIFPRP | -0.406
13 | RRIRYRPPRLPRPRPRPQNFPRP | -0.00184
14 | RRIRIRPPRLPRPRPRPRYHPRP | -1.12
15 | RRIRQRPPRLPRPRPRPKMRPRP | 0.0141
16 | RRIRFRPPRLPRPRPRPRFFPRP | 0.0547
17 | RRIRHRPPRLPRPRPRPVRHPRP | 0.251
18 | RRIRWRPPRLPRPRPRPVEYPRP | -0.00674
19 | RRIRWRPPRLPRPRPRPLYDPRP | -0.0701
20 | RRIRSRPPRLPRPRPRPGYDPRP | -0.125
21 | RRIRARPPRLPRPRPRPCTMPRP | -0.207
22 | RRIRYRPPRLPRPRPRPKRYPRP | -0.0281
23 | RRIRLRPPRLPRPRPRPKPFPRP | 2.21

Row | Sequence | shrunken log2 fold change
24 | RRIRCRPPRLPRPRPRPETNPRP | 0.222
25 | RRIRERPPRLPRPRPRPPCAPRP | -0.0458
26 | RRIRIRPPRLPRPRPRPCHIPRP | -0.149
27 | RRIRGRPPRLPRPRPRPLPIPRP | 0.0433
28 | RRIRNRPPRLPRPRPRPFGLPRP | -0.231
29 | RRIRTRPPRLPRPRPRPDEVPRP | -0.0587
30 | RRIRDRPPRLPRPRPRPSKAPRP | -0.393
31 | RRIRSRPPRLPRPRPRPACMPRP | 0.159
32 | RRIRLRPPRLPRPRPRPPCSPRP | -0.0182
33 | RRIRTRPPRLPRPRPRPTCCPRP | -0.0411
34 | RRIRKRPPRLPRPRPRPVVEPRP | 0.274
35 | RRIRRRPPRLPRPRPRPDHGPRP | -0.146
36 | RRIRDRPPRLPRPRPRPRDHPRP | 0.0411
37 | RRIRWRPPRLPRPRPRPWVIPRP | 0.00419
38 | RRIRRRPPRLPRPRPRPMEGPRP | 0.0518
39 | RRIRCRPPRLPRPRPRPGKAPRP | 0.00811
40 | RRIRWRPPRLPRPRPRPLQFPRP | 0.0403
41 | RRIRKRPPRLPRPRPRPTCPPRP | 0.0404
42 | RRIRQRPPRLPRPRPRPDLCPRP | -0.00719
43 | RRIRYRPPRLPRPRPRPAEMPRP | -1.02
44 | RRIRPRPPRLPRPRPRPADCPRP | 0.273
45 | RRIRERPPRLPRPRPRPWYKPRP | -0.0738
46 | RRIRQRPPRLPRPRPRPHKNPRP | -0.194

Row | Sequence | shrunken log2 fold change
47 | RRIRSRPPRLPRPRPRPSQKPRP | -0.158
48 | RRIRRRPPRLPRPRPRPYQPPRP | -0.00931
49 | RRIRLRPPRLPRPRPRPTPFPRP | 0.253
50 | RRIRERPPRLPRPRPRPQRDPRP | 0.0296
51 | RRIRLRPPRLPRPRPRPSVIPRP | -0.183
52 | RRIRYRPPRLPRPRPRPRHLPRP | -0.142
53 | RRIRLRPPRLPRPRPRPVGIPRP | 0.102
54 | RRIRRRPPRLPRPRPRPFSEPRP | -0.0505
55 | RRIRYRPPRLPRPRPRPFKEPRP | -0.146
56 | RRIRLRPPRLPRPRPRPWRWPRP | 0.0385
57 | RRIRRRPPRLPRPRPRPKRFPRP | 0.305
58 | RRIRWRPPRLPRPRPRPKYDPRP | -0.449
59 | RRIRQRPPRLPRPRPRPHNAPRP | -0.0184
60 | RRIRTRPPRLPRPRPRPWTCPRP | -0.0449
61 | RRIRSRPPRLPRPRPRPCDGPRP | 0.0333
62 | RRIRPRPPRLPRPRPRPPDWPRP | 0.577
63 | RRIRCRPPRLPRPRPRPALIPRP | -0.0928
64 | RRIRCRPPRLPRPRPRPRAEPRP | 0.539
65 | RRIRFRPPRLPRPRPRPESHPRP | -0.154
66 | RRIRKRPPRLPRPRPRPPAPPRP | 1.14
67 | RRIRNRPPRLPRPRPRPERTPRP | -0.00566
68 | RRIRQRPPRLPRPRPRPHLSPRP | -0.00594
69 | RRIRARPPRLPRPRPRPVRKPRP | 0.763

Row | Sequence | shrunken log2 fold change
70 | RRIRNRPPRLPRPRPRPACDPRP | -0.00482
71 | RRIRYRPPRLPRPRPRPIMNPRP | -0.123
72 | RRIRLRPPRLPRPRPRPANTPRP | -0.124
73 | RRIRYRPPRLPRPRPRPLRHPRP | -0.177
74 | RRIRVRPPRLPRPRPRPVCNPRP | -0.0396
75 | RRIRSRPPRLPRPRPRPTPIPRP | 0.0944
76 | RRIRKRPPRLPRPRPRPDFPPRP | 0.416
77 | RRIRLRPPRLPRPRPRPCTFPRP | -0.0569
78 | RRIRWRPPRLPRPRPRPRAPPRP | 0.84
79 | RRIRWRPPRLPRPRPRPNSSPRP | -0.0636
80 | RRIRIRPPRLPRPRPRPAIFPRP | -0.102
81 | RRIRFRPPRLPRPRPRPGGMPRP | -0.0381
82 | RRIRIRPPRLPRPRPRPRFGPRP | 0.174
83 | RRIRARPPRLPRPRPRPYKQPRP | -0.295
84 | RRIRVRPPRLPRPRPRPNQLPRP | -0.188
85 | RRIRARPPRLPRPRPRPTWPPRP | 1.13
86 | RRIRKRPPRLPRPRPRPNKMPRP | -0.231
87 | RRIRQRPPRLPRPRPRPTDPPRP | 0.107
88 | RRIRKRPPRLPRPRPRPQSWPRP | 0.451
89 | RRIRPRPPRLPRPRPRPVMTPRP | -0.0299
90 | RRIRCRPPRLPRPRPRPGMMPRP | -0.389
91 | RRIRMRPPRLPRPRPRPCACPRP | 0.0487

Source: the supplement of paper PMC9112550, “Optimization of the antimicrobial peptide Bac7 by deep mutational scanning” (BMC Biology, 2022)
